Test results reported in the nanobody polyreactivity screen of Harvey et al. (2022).

Assay: yeast display, Sf9 membrane polyspecificity reagent, FACS + sequencing; frameworks hold sequencing errors
How it was run: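 A synthetic nanobody library was expressed on Saccharomyces cerevisiae BJ5465 by galactose induction for 36–48 hours. The library was stained for 1 hour at 4 °C with 10% biotinylated, detergent-solubilized Sf9 membrane reagent and enriched with streptavidin microbeads before FACS. Low and high (top ~1%) gates were set on anti-HA fluorescence for expression and streptavidin fluorescence for reagent binding, and each polyreactivity label reflects the gate of origin.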

Sequence	polyreactivity (PSR sort gate)
QVQLVESGGGLVQAGGSLRLSCAASGFIFQTNVMGWYRQAPGKERELVAAISSGDSTYYADSVKGRFTISRDNAKNTVYLQMNSLKPEDTAVYYCAADSIRTLLTGNTVYIWYGYWGQGTQVTVSS	low polyreactivity
QVQLVESGGGLVQAGGSLRLSCAASGFIFQWYAMGWYRQAPGKERELVAAISIGDSTYYADSVKGRFTISRDNAKNTVYLQMNSLKPADTAVYFCNADPWGYYSVIPLYEYDYWGQGTQVTVSS	low polyreactivity
QVQLVESGGGLVQAGGSLRLSCAASGFIFQWYAMGWYRQAPGKERELVAAISIGDSTYYADSVKGRFTISRDNAKNTVYLQMNSLKPEDTAVYYCNSDPWGYYCVIPLYEYDYWGQGTQVTVSS	low polyreactivity
QVQLVESGGGLVQAGGSLRLSCAASGFIFQYNAMGWYRQAPGKERELVAAISKSGGRTYYADSVKGRFTISRDNPKNTVDLQMNSLKPEDTAVYYCAALYVWLWGYRFDYWGQGTQVTVSS	high polyreactivity
QVQLVESGGGLVQAGGSLRLSCAASGFIFQYYGMGWYRQAPGQVRELVAAIDSRGGSTYYADSVKGRFTISRDNAKNTVSLQMNSLKPADTAVYYCAAMGLYQGTLNHFYYWGQGTQVTVAS	low polyreactivity
QVQLVESGGGLVQAGGSLRLSCAASGFIFRAYAMGWYRQAPGKERELVAAITKRSGTTYYADSVKGRFTISRDNAKNTVYLQMHSLKPEDTAVYYCAARYYRDYRWYTYAYDYWGQGTQVTVSS	high polyreactivity
QVQLVESGGGLVQAGGSLRLSCAASGFIFRAYTKGWYRQAPGKERELVAAITSSGGRTNYADSVKGRFTISRDNAKNTVYLQMNSLKPEDTAVYYCATVYAKWKQFDYWGQGTQVTVSS	high polyreactivity
QVQLVESGGGLVQAGGSLRLSCAASGFIFRAYTMGWYRQAPGKERELVAAITSSGGRTYYADSVKGRFTISRDNAKNTVYLQMNSLKPEDTAVYYCATVYAKWKQFDYWGQGTQVTVSS	high polyreactivity
QVQLVESGGGLVQAGGSLRLSCAASGFIFRFNAMGWYRQAPGKEREMVAAISWRGGSTYYADSVKGRFTISRDNAKNTVYLQMNSLKPEDTAVYYCAADVTRYYRYGYNYWGQGSQVTVSS	high polyreactivity
QVQLVESGGGLVQAGGSLRLSCAASGFIFRFYAMGWYRQAPGKERELVAAISSDGSTNYADSVKGRFTISRDNAKNTVYLQMNSLKPEDTAVYYCNADYYEYYSGPTLVVYIYGYWGQGTQVTVSS	low polyreactivity
QVQLVESGGGLVQAGGSLRLSCAASGFIFRGYAMGWYRQAPGKERELVAAINYSGGSTYYADSVKGRFTISRDNAKNTVYLQMNSLKPEDTAVYYCAAGKRGDDDYWGQGTQVTVSS	high polyreactivity
QVQLVESGGGLVQAGGSLRLSCAASGFIFRGYAMGWYRQAPGKERELVAAITSSGGDTYYADSVKGRFTISRDNAKNTVYLQMNSLKPEDTAVYYCNARVYASGTEGDYWGQGTQVTVSS	low polyreactivity
QVQLVESGGGLVQAGGSLRLSCAASGFIFRHYAMGWYRPAPGKERELVAAITSGGTTYYADSVKGRFTISRDNAKNTVYLQMNSLKPEDTAVYYCNTVYYRPGQDVDYWGQGTQVTVSS	high polyreactivity
QVQLVESGGGLVQAGGSLRLSCAASGFIFRLNAMGWYRQAPGKERELVAAISTYADSMKGRFTISRDNAKNTVYLQMNSLKPEDTAVYYCAKDYTDTYAYRTGFDYWGQGTQVTVSS	low polyreactivity
QVQLVESGGGLVQAGGSLRLSCAASGFIFRLYTMGGYRQAPGKERELVAAISWSGGRTYYADSVKGRFTISRDNAKNTVYLQMNSLKPEDTAVYYCAKDLYLHTYYAYPYRFGSGYYWGQGTQVTVSS	low polyreactivity
QVQLVESGGGLVQAGGSLRLSCAASGFIFRNYAMGWYRQAPGKERELVAAISRRAGSTYYADSVKGRFTISRDNAKNTVYLQMNSLKPEVTAVYYCAADSYWRYYPTKYDYWGQGTQVTVSS	high polyreactivity
QVQLVESGGGLVQAGGSLRLSCAASGFIFRQNAMGWYRQAPGKERELVAAISGSGGRTYYADSVKGRFTISRDTAKNTVYLQMNSLKPEDTAVYYCAAQYVTSRFDYWGQGTQVTVSS	high polyreactivity
QVQLVESGGGLVQAGGSLRLSCAASGFIFRQYAMGWYRQAPGKEMELVAAISSSGGRTYYADSVKGRFTISRDNAKNTVYLQMNSLKPEDTAVSYCNARAWLRVEYGEGYWGQGTQVTVSS	high polyreactivity
QVQLVESGGGLVQAGGSLRLSCAASGFIFRRNAMGWYRQAPGKEREFVAAITWSGGSTYYADSVKGRFTISRDNAKDTVYLQMNSLKPEDTAVYYCAATYSQYWYTKYLNSYPGYDYWGQGTQVTVSS	low polyreactivity
QVQLVESGGGLVQAGGSLRLSCAASGFIFRRNAMGWYRQAPGKEREFVAAITWSGGSTYYADSVKGRFTISRDNAKYTVYLQMNSLKPEDTAVYYCAATYSQYWYTKYLNSYPGYDYWGQGTQVTVSS	low polyreactivity
QVQLVESGGGLVQAGGSLRLSCAASGFIFRRYAMGWSRPAPGNERELVAAITWSGGSTYYADSVKGRFTISRDNAKNTVYLQMNSLKPEDTAVYYCAAVYRQSGDYYSRDYYWGQGTQVTVSS	high polyreactivity

Sequence	polyreactivity (PSR sort gate)
QVQLVESGGGLVQAGGSLRLSCAASGFIFRSNAMGWYRQAPGKEREFVAAISSRGGSTTYADSVKGRFTISRDNAKNTVYLQMNSLKPEDTAVYYCARSLRRFVVAYDYWGQGTQVTVSS	high polyreactivity
QVQLVESGGGLVQAGGSLRLSCAASGFIFRSYDMGWYRQAPGKERELVARISSGGSTYYADSVKGRFTISRDNAKNTVYLQMNSLKPEDTAVYYCNSARPTAAYDYWGQGTQVTVSS	low polyreactivity
QVQLVESGGGLVQAGGSLRLSCAASGFIFRTNAMGWYRQAPGKERELVAAISRSGNTYYADSVKGRFTISRDNAKNTVYLQMNSLKPEDTAVYYCNAGWYGAYRWYRSDYWGQGTQVTVSS	high polyreactivity
QVQLVESGGGLVQAGGSLRLSCAASGFIFRTYAMGWYRQAPGKERELDATITGDGSTNYADSVKGRFTISRDNAKKTVYLQMNSLKPEDTAVYYGSRDVRLSGDYWGQGTQVTVSS	low polyreactivity
QVQLVESGGGLVQAGGSLRLSCAASGFIFRVYAMGWYRQAPGKERELVAAITRAGNTYYADSVKGRFTISRDNAKNTVYLQMNSLKPEDTAVYYCNNYHYWASPMNYWGQGTQVTVSS	high polyreactivity
QVQLVESGGGLVQAGGSLRLSCAASGFIFRVYAMGWYRQAPGKERELVATITYDGGRTYYADSVKGRFTISRDNAKNTVYLQMNSLKPEDTAVFGYWGQGTQVTVSS	low polyreactivity
QVQLVESGGGLVQAGGSLRLSCAASGFIFRWYAMGGYRPAPGKERELVASITRCGSTYYADSVKGRFTISRDNAKNTVYLQMNSLKPEDTAVYYCAVDYLSPKYDYWGHGTQVTVSS	high polyreactivity
QVQLVESGGGLVQAGGSLRLSCAASGFIFRWYAMGWSRQAPGKERELVAAISRGGSTNYADSVKGRFTISRDNAKNTVYLQMISLKPEDTAVYYCNARYVSYSGRYVIGQYVKYDYWGQGTQVTVSS	high polyreactivity
QVQLVESGGGLVQAGGSLRLSCAASGFIFRWYAMGWSRQAPGKERELVAAISSGGSTYYADSVKGRFTISRDNAKNTVYLQMNSLKPEDTAVYYCAVRRYSEGDYWGQGTQVTVSS	high polyreactivity
QVQLVESGGGLVQAGGSLRLSCAASGFIFRWYAMGWYRPAPGKERELVASINWSGSRTNYADSVKGRFTISRDNAKNTVYLQMNSLKPEDTAVYYCNAYGGLQYDYWGQGTQVTVSS	high polyreactivity
QVQLVESGGGLVQAGGSLRLSCAASGFIFRWYAMGWYRQAPGKERELVASINWSGSRTNYADSVKGRFTISRDNAKYTVYLQMNSLKPEDTAVYYCNAYGGLQYDYWGQGTQVSVSS	high polyreactivity
QVQLVESGGGLVQAGGSLRLSCAASGFIFRWYAMGWYRQAPWKERELVASINTDGDSTYYADSVKGRFTISRDNAKNTVYLQMNSLKPEDTAVYYCAADYVGYWWYTSDNYDYWGQGTQVTVSS	high polyreactivity
QVQLVESGGGLVQAGGSLRLSCAASGFIFRWYTLGWYRQAPGKERELVAAISRSGGSTYYADSVKGRFTISRDNAKNTVYLQMNSLKPEDTAVYYCNAYDHPIYRLDYWGQGTQVTVSS	high polyreactivity
QVQLVESGGGLVQAGGSLRLSCAASGFIFRYNAMGWYIQAPGKERELVASIDWSGGSTYYADSVKGGFTISRDNAKITVYLQMNSLKPEDTEVYYCAADTSYWYDYYIDYVGYYYWGQGTQVTVSS	high polyreactivity
QVQLVESGGGLVQAGGSLRLSCAASGFIFRYNAMGWYRQAPGKEREFVAAISQGGASTYYADSVKGRFTISRDNAKNTVYLQMNSLKPEDTAVYYCAREPSIFTPSYDYWGQGTQVTVSS	low polyreactivity
QVQLVESGGGLVQAGGSLRLSCAASGFIFRYNAMGWYRQAPGKEREFVAAISWGGGRTYYADSVKGRFTISRDNAKNTVYLQMNSLKPEDTAVYYCAAVSPHNRYGYKYDYWGQGTQVTVSS	high polyreactivity
QVQLVESGGGLVQAGGSLRLSCAASGFIFRYNTMGWYRQAPGKERELVAAISVSGARTYYADSVKGRFTISRDNAKNTVYLQMNSLKPEDTAVYYCNRRYPFYSRYNNDYWGQGTQVTVSS	high polyreactivity
QVQLVESGGGLVQAGGSLRLSCAASGFIFRYYALGWYRQAPGKERELVAAIDYSGGSTNYADSVKGRFTISRDNAKNTVYLQMNSLKPEDTGVYYCATVSDNRYYYWGQGTQVTVSS	low polyreactivity
QVQLVESGGGLVQAGGSLRLSCAASGFIFRYYAMGWYRHAPGKERELVAAISSGGRTSYADSVKGRFTISRDNAKNTVYLQMNSLKPEDTAVYYCAADSWRGLFYYGNDYWGQGTQVTVSS	high polyreactivity
QVQLVESGGGLVQAGGSLRLSCAASGFIFRYYAMGWYRQAPGKERELVAAIDYSGGSTNYADSVKGRFTISRDNAKNTVYLQMNSLKPEDTAVYYYDYWGQGTQVTVSS	low polyreactivity
